The supplement of paper PMC11908140

B1: library; numbered along this chain (parent)
chain: MRKPRAAVGSGHRKQAASQEGRQKHAKNNSQAKPSACDGLARQPEEVVLQASVSSYHLFRDVAEVTAFRGSLLSWYDQEKRDLPWRRRAEDEMDLDRRAYAVWVSEVMLQQTQVATVINYYTGWMQKWPTLQDLASASLEEVNQLWAGLGYYSRGRRLQEGARKVVEELGGHMPRTAETLQQLLPGVGRYTAGAIASIAFGQATGVVDGNVARVLCRVRAIGADPSSTLVSQQLWGLAQQLVDPARPGDFNQAAMELGATVCTPQRPLCSQCPVESLCRARQRVEQEQLLASGSLSGSPDVEECAPNTGQCHLCLPPSEPWDQTLGVVNFPRKASRKPPREESSATCVLEQPGALGAQILLVQRPNSGLLAGLWEFPSVTWEPSEQLQRKALLQELQRWAGPLPATHLRHLGEVVHTFSHIKLTYQVYGLALEGQTPVTTVPPGARWLTQEEFHTAAVSTAMKKVFRVYQGQQPGTCMGSKRSQVSSPCSRKKPRMGQQVLDNFFRSHISTDAHSLNSAAQ

Variants of: B1
Test: 8OG:A repair function score (normalized; synonymous = 0, nonsense = -1) (normalized log-likelihood score); higher = more repair activity (WT-like)
Conditions: with 8OG:A DNA repair reporter (GFP) in HEK-293 MUTYH KO cells
Method in brief: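 After 72 h, viable mCherry+ cells were split into GFP+ (repair) and GFP− bins in three replicates per tile. These cells were MUTYH knockout HEK-293 cells holding lentiviral MUTYH cDNA NNN codon-scan libraries, kept in 10 pg/ml doxycycline and co-transfected with mCherry plus an 8OG:A GFP repair reporter. Sequencing of tile amplicons gave per-tile Rosace fitness scores, normalized into a repair function score anchored on synonymous and nonsense distributions. Synonymous medians were fixed at 0, nonsense at -1, and variants under 300 counts per million at the start were removed.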
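Also: cells sorted at 72 h after reporter transfection.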

8OG:A repair function score, by site and new letter:
L169: Q -0.00403; M 0.0203; K -0.189; D -0.386; G -0.273; C -0.0691; P -0.645; S -0.284; W -0.0366; A -0.177; V -0.409; N -0.172; I -0.337; F -0.0235; H -0.0549; T -0.186; R -0.105; Y -0.104; E -0.261
Q181: K -0.0739; Y 0.00604; W -0.337; D -0.331; T -0.0945; P -0.726; E 0.0231; N -0.118; L -0.0425; A -0.034; R -0.0552; C -0.121; V -0.114; S -0.0472; M -0.0648; I -0.0381; G -0.165; F -0.0623; H -0.175
L184: C -0.317; A -0.718
L180: D -1.1; N -1.02; E -0.764; I -0.119; G -0.785; K -0.838; C -0.258; A -0.223; P -1.03; R -1.18; V -0.497; W -0.713; F -0.576; Q -0.655; Y -0.571; S -0.679; H -1.24; T -0.439
L183: W -0.0703; K -0.0447; V 0.0213; I -0.112; F -0.0771; H 0.0988; R -0.105; Q 0.0196; C -0.208; N -0.102; E -0.0475; D -0.21; T -0.0372; S 0.0487; P -0.826; M -0.13; Y 0.0742; A -0.0103; G -0.0301
P174: V -0.797; D -0.922; E -0.932; S -0.753; T -0.922; W -1.14; N -0.958; C -0.583; Y -0.958; A -0.706; G -0.814; H -0.972; K -0.797; Q -0.827; I -0.9; R -0.877; L -0.947; F -0.961; M -0.732
T176: V -0.285; D 0.00933; H -0.0301; Y -0.16; G -0.216; Q -0.0945; L -0.174; W -0.419; K -0.0846; A -0.251; P -0.429; S -0.0317; E -0.128; I -0.31; C -0.0512; R -0.102; N 0.0341; M -0.28; F -0.157
Q182: F -0.161; G -0.00226; S 0.0262; P -0.18; M -0.0488; L -0.0117; Y 0.00409; N -0.133; I -0.0148; K 0.129; C -0.0792; A 0.0281; T -0.0374; R -0.0127; W -0.114; E -0.0278; H 0.0507; D -0.0172; V -0.022
E167: K 0.0784; V -0.0209; N 0.0307; Q 0.141; Y 0.0239; A -0.18; F 0.0154; C -0.0723; P -0.768; S -0.0659; D 0.018; L 0.00804; I -0.0169; R -0.0147; G 0.00335; T 0.067; H -0.0317; M -0.0528; W -0.0936
T179: P -0.236; H 0.0778; E -0.0168; Y -0.146; W -0.0647; G 0.108; V -0.0453; I -0.04; S 0.00681; F -0.0885; R 0.0462; M 0.0538; N -0.0369; D 0.248; K 0.0976; A -0.088; L 0.0629; C -0.0042; Q -0.0228
V166: Y -0.184; T -0.155; Q -0.0914; N -0.124; L -0.161; R -0.182; S -0.0616; K -0.116; P -0.858; W 0.0741; M -0.0629
E178: D -0.000297; G -0.126; K 0.0383; L -0.106; P -0.125; Q -0.0318; M 0.0407; Y 0.00398; S -0.037; W -0.0455; T 0.0829; A 0.0541; C -0.0388; I -0.0162; R 0.0879; V -0.12; F -0.0911; H -0.0501; N 0.0803
G170: M -0.0605; W -0.239; D 0.0788; Q 0.0993; Y -0.062; H 0.094; K -0.0295; N 0.0595; C -0.00944; F -0.166; E -0.0272; P -0.872; I -0.395; T -0.248; R -0.0153; V -0.31; L -0.232; S 0.00875
E168: N 0.0349; W -0.201; C 0.0112; D -0.0557; Y -0.173; I -0.134; V -0.0341; R -0.0574; P -0.661; M -0.0593; K -0.00268; A -0.135; L -0.0373; S -0.0595; Q 0.0147; H -0.103; T -0.0102; F -0.102; G -0.24
A177: G -0.166; M -0.0819; C -0.0436; W -0.324; T -0.226; F -0.273; K -0.0185; P -0.0959; Y -0.194; L -0.213; V -0.207; N -0.0568; R -0.127; D -0.363; Q -0.125; S -0.1; E -0.368; I -0.142; H -0.14
G171: C -0.239; S -0.267; Y -0.628; N -0.204; D -0.296; P -1.16; H -0.42; M -0.536; I -0.703; F -0.571; L -0.605; E -0.526; Q -0.338; V -0.443; A -0.18; W -0.633; T -0.321; R -0.577; K -0.84
M173: H -0.672; A -0.537; L -0.00175; R -1.15; V -0.0935; F -0.014; W -0.276; Y -0.366; P -0.654; G -0.965; Q -0.93; T -0.402; I 0.0625; E -1.13; S -0.859; D -0.926; K -0.971; C -0.257; N -0.945
R175: T -0.00924; N -0.0345; H -0.116; A -0.0909; Q 0.0309; D -0.192; W -0.356; E 0.0279; G -0.166; P -0.229; F -0.197; C -0.0695; K -0.133; L -0.252; Y -0.175; I -0.189; V -0.148; S -0.0258; M -0.155
H172: L -0.0966; I -0.0329; R -0.0155; Q 0.0285; G -0.216; V 0.0577; P -0.512; A -0.0729; F -0.0443; S 0.0204; D -0.0948; C -0.0393; W -0.21; N -0.0786; K 0.118; E 0.017; Y -0.0294; M 0.0264; T 0.0683
